Assay [1] addresses thyroid-stimulating hormone (TSH) receptor (human) (UniProt P16473). Put plainly: cell-based or functional assay.
Assay [2] has the same target. Put plainly: flow cytometry, 10 ug/ml TSH-biotin + SA-PE on human PBMC donor 2, myeloid gate; SA-PE alone 5.92, unstained 4.33; * = credible positive shift. A general note: In flow cytometry, cells or beads pass a laser one at a time.
For assay [3] the target is unchanged. Put plainly: flow cytometry, 10 ug/ml TSH-biotin + SA-PE on human PBMC donor 2, lymphoid gate; SA-PE alone 3.92, unstained 3.19; no * (no credible shift).
Assay [4] shares this target. Put plainly: flow cytometry, 10 ug/ml TSH-biotin + SA-PE on human PBMC donor 1, myeloid gate; SA-PE alone 4.44, unstained 3.43; * = credible positive shift.
Assay [5] has the same target. The assay is described as follows: flow cytometry, 10 ug/ml TSH-biotin + SA-PE on U937 human monocyte line, all live cells; SA-PE alone 4.88, unstained 4.49; * = credible positive shift.
The target is the same in assay [6]. The assay is described as follows: flow cytometry, 10 ug/ml TSH-biotin + SA-PE on human PBMC donor 1, lymphoid gate; SA-PE alone 2.50, unstained 2.13; no * (no credible shift).

Here are results for two substances from patent publication US20050171017A1.

Sequence of thyroid-stimulating hormone (TSH) receptor (human) (P16473 21-764): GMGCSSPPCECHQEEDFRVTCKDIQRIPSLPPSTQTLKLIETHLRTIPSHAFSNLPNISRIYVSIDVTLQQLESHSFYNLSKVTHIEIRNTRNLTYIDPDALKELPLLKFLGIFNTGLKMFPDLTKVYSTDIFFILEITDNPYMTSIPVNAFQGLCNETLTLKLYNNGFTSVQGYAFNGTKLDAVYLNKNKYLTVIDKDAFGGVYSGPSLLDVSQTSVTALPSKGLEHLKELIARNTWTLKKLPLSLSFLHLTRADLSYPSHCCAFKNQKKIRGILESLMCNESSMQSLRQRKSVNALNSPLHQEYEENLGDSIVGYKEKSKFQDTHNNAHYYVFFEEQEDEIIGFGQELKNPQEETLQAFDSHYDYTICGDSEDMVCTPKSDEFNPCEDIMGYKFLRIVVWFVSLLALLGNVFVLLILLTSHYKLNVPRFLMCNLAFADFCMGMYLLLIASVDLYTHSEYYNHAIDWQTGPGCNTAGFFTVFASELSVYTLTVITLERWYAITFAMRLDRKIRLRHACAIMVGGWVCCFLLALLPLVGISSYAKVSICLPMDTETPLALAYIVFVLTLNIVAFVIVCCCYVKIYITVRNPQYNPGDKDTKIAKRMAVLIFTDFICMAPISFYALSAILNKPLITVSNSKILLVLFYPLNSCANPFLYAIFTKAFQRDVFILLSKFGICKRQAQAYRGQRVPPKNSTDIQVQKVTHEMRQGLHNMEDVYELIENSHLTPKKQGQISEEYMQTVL

For the substance “Thyroid stimulating hormone (TSH), purified TSH heterodimer protein (from UniProt P01215 25-116; P01222 21-132) (ligand)”, the luciferase induction (CRE-luciferase reporter, NCI-H295R human adrenal cortex cells) in assay [1] fell in the range of 15 to 25 fold.

“TSH-biotin (from UniProt P01215 25-116; P01222 21-132) (ligand)”: the FL-2 MFI is 7.26 MFI in assay [2]; 4.23 MFI in assay [3]; 7.78 MFI in assay [4]; 6.34 MFI in assay [5]; 2.63 MFI in assay [6].
